Changes are numbered by the printed parent chain.
T1: His-tagged human BCMA (Acro Biosystems, Cat. #BCA-H522y) (human, UniProt Q02223 1-54)
T1 construct: also called huBCMA; P1; not shown: His tag
T1 sequence: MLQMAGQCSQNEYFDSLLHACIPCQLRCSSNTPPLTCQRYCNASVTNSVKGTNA

T2: human BCMA expressed on cells (human, UniProt Q02223 1-184)
T2 construct: the cell line is named under assay; also called wildtype human BCMA
T2 sequence: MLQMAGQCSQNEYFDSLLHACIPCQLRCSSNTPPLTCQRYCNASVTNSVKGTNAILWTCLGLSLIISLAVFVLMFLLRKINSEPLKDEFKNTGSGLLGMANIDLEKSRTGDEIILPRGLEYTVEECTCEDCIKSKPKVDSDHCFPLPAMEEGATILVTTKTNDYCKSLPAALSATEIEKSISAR

T3: His-tagged mouse BCMA (Acro Biosystems, BCA-M52H3) (mouse, UniProt O88472 1-49)
T3 construct: Bought protein; not shown: His tag
T3 chain: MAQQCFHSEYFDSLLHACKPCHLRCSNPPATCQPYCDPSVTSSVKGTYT

T4: recombinant his-tagged human TACI (Sinobiological cat #11937-H08H) (human, UniProt O14836 1-165)
T4 construct: Bought protein; also called Human TACI-His; huTACI; not shown: His tag
T4 sequence: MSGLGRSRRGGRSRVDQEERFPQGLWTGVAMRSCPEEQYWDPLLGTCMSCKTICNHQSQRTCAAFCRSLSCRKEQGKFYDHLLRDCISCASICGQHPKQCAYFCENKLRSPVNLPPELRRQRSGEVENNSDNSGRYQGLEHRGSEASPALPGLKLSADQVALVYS

T5: Cyno TACI-His (Sino Biological, 90976-C08H) (cynomolgus macaque, UniProt G7PTR7 1-165)
T5 construct: Bought protein; also called cynomolgous macaque TACI; CyTACI
T5 sequence: T4 sequence with F21S, T52A, A64T, S70N, K77R, L139S, V160L

T6: Human BCMA-His (Sino Biological, 10620-H08H) (human, UniProt Q02223 1-54)
T6 construct: not shown: His tag
T6 sequence: T1 sequence

B1: 552-LN2-E6 (antibody produced by the hybridoma) (antibody, V domains shown)
VH: QIQLVQSGPELKKPGETVKISCMASGYTFTDYSVRWVKQAPGKGLEWMGWINTETGEPTYADDFKGRFAFSLETSASTAYLQINNLKNEDTATYFCAISYYYALDYWGHGTSVTVSS
VL: DIVLTQSPASLTVSLGQRATISCRASKSVSTSVYSFLHWYQQKPGQPPKLLIYLASNLESGVPARFSGSGSGTDFTLNIHPVEEEDAATYYCQHSRELPRTFGGGTKLEIK
notes: Mouse antibody from B cell hybridoma (culture supernatant or IgG purified from it)
B2: 552-LN2-F8 (antibody produced by the hybridoma) (antibody, V domains shown)
VH: QIQLVQSGPELKKPGETVKISCKASGYTFTDYTMYWVKQAPGKGLKWMGWINTETGEPTYADDFKGRFVFSLETSANTAYLQINNLKNEDTATYFCAISYYYGMDYWGQGTSVTVTS
VL: B1 VL with V3I, T12A, S22T, V33G, S35N, L37V, H38Y
notes: as for B1
B3: 552-LN1-F4 (antibody produced by the hybridoma) (antibody, V domains shown)
VH: B1 VH with D62H, N88D, A92S
VL: B1 VL with V33G, S35N, V62A
notes: as for B1
B4: 552-LN1-E9 (antibody produced by the hybridoma) (antibody, V domains shown)
VH: B2 VH with T33S, M34I, V69A, N77S, T78S, N85T, A97S, G103A, T116S
VL: B1 VL with T12A, V33G, L54F
notes: as for B1
B5: 1C8-402 hIgG1 (antibody)
heavy: not shown
light: DIQMTQSPSSLSASVGDRVTITCRASQDISNYLSWYQQKPGKAPKLLMRYTSRLHSGVPSRFSGSGSGTDFTLTISSLEQEDFATYYCQQGNLFPPTFGGGTKVEIKRTVAAPSVFIFPPSDEQLKSGTASVVCLLNNFYPREAKVQWKVDNALQSGNSQESVTEQDSKDSTYSLSSTLTLSKADYEKHKVYACEVTHQGLSSPVTKSFNRGEC
notes: also called [90]
B6: 1C8-403 hIgG1 (antibody, V domains shown)
VH: QVQLVQSGAEVKKPGASVKVSCKASGYTFTNYVMHWVKQKPGQGLEWMGYILPYNDGTKYAQKFQGKVTMTSDKSTSTVYMELSSLTSEDTAVYYCARYDWEGSFDYWGQGTLVTVSS
VL: DIQMTQSPSSLSASVGDRVTITCRASSDISNYLNWYQQKPGKAPKLLMCYTSRLHSGVPSRFSGSGSGTDFTLTISSLEQEDFATYYCQQGNTFPPTFGGGTKVEIKR
notes: also called [91]; hu1C8-403
B7: 1C8-507 hIgG1 (antibody, V domains shown)
VH: B6 VH with T30R, Y50W, W101Y
VL: B6 VL with S27Q, C49R, R53L
notes: also called [92]; hu1C8-507
B8: 1C8-610 hIgG1 (antibody, V domains shown)
VH: B6 VH with H35F, L52T, W101Y
VL: B6 VL with S27Q, C49R, L54F, F98S
notes: also called [93]; hu1C8-610
B9: 539-SP5-D7 (antibody produced by the hybridoma) (antibody, V domains shown)
VH: EVMLVDSGGNLVKPGGSLKLSCAASGFTFSNYVISWVRQTPEKRLEWVATISTVGTNTYYPDSVRGRFTISRDNAENTLYLQMSSLRSEDTAIYYCSRHKYGYDDPSYAMDYWGQGTSVTVSS
VL: QLVLTQSSSASFSLGASAKLTCTLSSQHSTYTIEWYQQQPLKPPKYVMELKKDGSHSTGDGIPDRFSGSSSGADRYLSISNIQAEDEAIYICGVGDTVKEQFVYVFGGGTKVTVL
notes: as for B1
B10: 539-SP2-H3 (antibody produced by the hybridoma) (antibody, V domains shown)
VH: EVQLQQSGPELVKPGASVKMSCKASGYTFTSYVIHWVKQKPGQGLEWIGYVLPYNDVIKYNEKFKGKATLTSDKSSSTAYMDLSSLTSEDSAVYYCARWGDFDEGIWFPYWGQGTLVTVSA
VL: DVLMTQTPLSLPVSLGDHASVSCRSSQSIVHTDGNTYLEWYLQKPGQSPKLLIYKVSNRFSGVPDRFSGSGSGTDFTLKISRVEAEDLGVYYCFQGSHVPWTFGGGTKLEIK
notes: as for B1

What was measured:
[1] = target: T1, His-tagged human BCMA (Acro Biosystems, …); assay: ELISA, IgG purified from hybridoma supernatant, coated His-tagged antigen
[2] = target: T2, human BCMA expressed on cells; assay: flow cytometry, hybridoma supernatant, HEK293T cells stably expressing human BCMA
[3] = target: T1, His-tagged human BCMA (Acro Biosystems, …); assay: ELISA, hybridoma supernatant, coated His-tagged antigen
[4] = target: T7, His-tagged cynomolgous macaque BCMA (Acro Biosystems, BCA-C52H7) (cynomolgus macaque, UniProt Q02223 1-54 (human entry)); assay: as above
T7 construct: Bought protein; also called cyno BCMA; CyBCMA; not shown: His tag

[5] = target: T3, His-tagged mouse BCMA (Acro Biosystems, …); assay: as above
[6] = target: T2, human BCMA expressed on cells; assay: flow cytometry, H929 cells (BCMA+)
[7] = target: T2, human BCMA expressed on cells; assay: flow cytometry, fixed RPMI 8226 cells (BCMA+, TACI+: the cells carry both targets)
[8] = target: T7, His-tagged cynomolgous macaque BCMA …; assay: BLI, IgG on HFC tip, His-tagged cynomolgus BCMA 300-37.5 nM
[9] = target: T1, His-tagged human BCMA (Acro Biosystems, …); assay: BLI, IgG on HFC tip, His-tagged human BCMA 300-37.5 nM
[10] = target: T4, recombinant his-tagged human TACI …; assay: ELISA, coated Human TACI-His
[11] = target: T7, His-tagged cynomolgous macaque BCMA …; assay: ELISA, coated Cyno BCMA-His
[12] = target: T4, recombinant his-tagged human TACI …; assay: BLI, IgG on HFC tip, His-tagged human TACI 300-37.5 nM
[13] = target: T8, Human HER3-His (Sino Biological, 10201-H08H) (human, UniProt P21860 20-643); assay: ELISA, coated His-tagged antigen
T8 construct: Specificity control; also called Human HERS-His

[14] = target: T5, Cyno TACI-His (Sino Biological, …); assay: BLI, IgG on HFC tip, His-tagged cynomolgus TACI 300-37.5 nM
[15] = target: T6, Human BCMA-His (Sino Biological, …); assay: ELISA, coated Human BCMA-His
[16] = target: T5, Cyno TACI-His (Sino Biological, …); assay: ELISA, coated Cyno TACI-His

Binder	EC50 [1]	% Parent (percent positive cells) [2]	ELISA values (OD 450 nm) [3]	ELISA values (OD 450 nm) [4]	ELISA values (OD 450 nm) [5]	EC50 [6]	EC50 [7]	Kd [8]	koff [8]	kon [8]	Kd [9]	koff [9]	kon [9]	EC50 [10]	EC50 [11]	Kd [12]	koff [12]	kon [12]	binding result [13]	EC50 [15]	other results
B1	0.0505 µg/mL	60.8%	0.832 OD	0.729 OD	0.002 OD	–	–	–	–	–	–	–	–	–	–	–	–	–	–	–	–
B2	0.0585 µg/mL	73.8%	0.884 OD	1.83 OD	0.001 OD	–	–	–	–	–	–	–	–	–	–	–	–	–	–	–	–
B3	0.037 µg/mL	66.4%	0.845 OD	1.89 OD	0.006 OD	–	–	–	–	–	–	–	–	–	–	–	–	–	–	–	–
B4	0.071 µg/mL	75.4%	0.836 OD	2.07 OD	0.017 OD	–	–	–	–	–	–	–	–	–	–	–	–	–	–	–	–
B5	–	–	–	–	–	0.128 nM	0.000136 µM	0.0024 µM	0.00272 s⁻¹	1.13e+06 M⁻¹ s⁻¹	0.000791 µM	0.00312 s⁻¹	3.95e+06 M⁻¹ s⁻¹	0.02 nM	0.002 nM	0.0702 µM	0.0576 s⁻¹	821000 M⁻¹ s⁻¹	no binding (tested: 3 µg/ml (highest concentration))	0.11 nM	Kd [14]: 0.00259 µM; koff [14]: 0.00186 s⁻¹; kon [14]: 718000 M⁻¹ s⁻¹; EC50 [16]: 4 pM
B6	–	–	–	–	–	0.134 nM	0.000172 µM	0.00654 µM	0.00917 s⁻¹	1.4e+06 M⁻¹ s⁻¹	0.0586 µM	0.00288 s⁻¹	49200 M⁻¹ s⁻¹	0.051 nM	0.016 nM	1100 µM	0.131 s⁻¹	118 M⁻¹ s⁻¹	no binding (tested: 3 µg/ml (highest concentration))	0.062 nM	EC50 [16]: 34 pM
B7	–	–	–	–	–	0.095 nM	0.000136 µM	0.0217 µM	0.0354 s⁻¹	1.63e+06 M⁻¹ s⁻¹	0.0591 µM	0.00172 s⁻¹	29200 M⁻¹ s⁻¹	0.021 nM	0.038 nM	0.61 µM	0.163 s⁻¹	267000 M⁻¹ s⁻¹	no binding (tested: 3 µg/ml (highest concentration))	0.087 nM	EC50 [16]: 11 pM
B8	–	–	–	–	–	0.0677 nM	0.000134 µM	0.0228 µM	0.0291 s⁻¹	1.28e+06 M⁻¹ s⁻¹	0.00065 µM	0.00307 s⁻¹	4.71e+06 M⁻¹ s⁻¹	0.01 nM	0.089 nM	0.0208 µM	0.0205 s⁻¹	988000 M⁻¹ s⁻¹	no binding (tested: 3 µg/ml (highest concentration))	0.01 nM	Kd [14]: 0.00125 µM; koff [14]: 0.000839 s⁻¹; kon [14]: 673000 M⁻¹ s⁻¹; EC50 [16]: 7 pM
B9	0.0335 µg/mL	76.2%	0.817 OD	0.252 OD	–	–	–	–	–	–	–	–	–	–	–	–	–	–	–	–	–
B10	0.152 µg/mL	74.3%	0.813 OD	0.669 OD	0.542 OD	–	–	–	–	–	–	–	–	–	–	–	–	–	–	–	–
